Consider 14 molecules from article PMC11615384, “Frequent transitions in self-assembly across the evolution of a central metabolic enzyme” (Nature Communications, 2024).

Positions count from the first letter of the chain named. Names may count otherwise. “And” between values parts separate entries of the source, which are not always exact repeats. Equal entries are not always repeated.

One may read the stoichiometry N as the number of molecules, sites or subunits per partner or assembly. A word on the Km: it is the substrate concentration at which the rate is half of its maximum. A word on the kcat: it is the number of substrate molecules converted per active site and unit of time at saturation.

Data set [1] concerns the target citrate synthase from M. sulfidovorans W150A (M. sulfidovorans). As to the kind of experiment: mass photometry; self-assembly of the purified protein in solution; final concentration 12.5 to 50 nM; PBS or 20 mM Tris, 200 mM NaCl pH 7.5; OneMP or TwoMP.
Data set [2] has as its target citrate synthase (type III CS) from M. sulfidovorans (M. sulfidovorans). Described as above.
The target in data set [3] is type II citrate synthase of C. woesi (C. woesi). The data set is described as above.
For data set [4], the target named is type II citrate synthase of F. taffensis (F. taffensis). The description is as above.
The target in data set [5] is CS from a Myxococcota species (a Myxococcota species). The description is as above.
Data set [6] has as its target T1, CS from A. comosus (nmCS) (Ananas comosus, UniProt A0A6P5F0R3).
T1 construct: gene LOC109710921; non-mitochondrial CS with C-terminal LE-HHHHHH tag, expressed in E. coli BL21(DE3); octamer (ring of four dimers); C-terminus extends to residue 513
Kind of data set: mass photometry, oligomeric state shift. As to conditions: 10 min preincubation with high acetyl-CoA; octamers shift to mix of hexamers and octamers. It counts as binding.

The target in data set [7] is non-mitochondrial citrate synthase (nmCS) of Chlamydomonas reinhardtii (Chlamydomonas reinhardtii). As to the kind of experiment: mass photometry; self-assembly of the purified protein in solution; final concentration 12.5 to 50 nM; PBS or 20 mM Tris, 200 mM NaCl pH 7.5; OneMP or TwoMP.
Data set [8] concerns the target non-mitochondrial citrate synthase (nmCS) of C. fasciculata (C. fasciculata). Described as above.
Data set [9] addresses non-mitochondrial citrate synthase (nmCS) of Ananas comosus (Ananas comosus). The data set is described as above.
Data set [10] has the same target. As to the kind of experiment: mass photometry; with high quantities of acetyl-CoA: prediluted protein (2 µM) incubated for 10 min with the substrate, same concentration in the buffer of the gasket.
Data set [11] concerns the molecule itself. Kind of data set: mass photometry; self-assembly of the purified protein in solution; final concentration 12.5 to 50 nM; PBS or 20 mM Tris, 200 mM NaCl pH 7.5; OneMP or TwoMP.
Substrate in data set [12]: O=C(O)CC(=O)C(=O)O
As to the kind of experiment: purified protein. Format: biochemical, Deinococcus pimensis. As to conditions: 50 mM Tris pH 7.5, 10 mM KCl, 25 °C, 25 nM enzyme, unseparated sample, varied substrate not named in main text.

Substrate in data set [13]: O=C(O)CC(=O)C(=O)O
As to the kind of experiment: purified protein. Format: biochemical, Methylophaga sulfidovorans. As to conditions: 50 mM Tris pH 7.5, 10 mM KCl, 25 °C, 25 nM enzyme, varied substrate not named in main text.

T1 sequence (A0A6P5F0R3 entry or part of it): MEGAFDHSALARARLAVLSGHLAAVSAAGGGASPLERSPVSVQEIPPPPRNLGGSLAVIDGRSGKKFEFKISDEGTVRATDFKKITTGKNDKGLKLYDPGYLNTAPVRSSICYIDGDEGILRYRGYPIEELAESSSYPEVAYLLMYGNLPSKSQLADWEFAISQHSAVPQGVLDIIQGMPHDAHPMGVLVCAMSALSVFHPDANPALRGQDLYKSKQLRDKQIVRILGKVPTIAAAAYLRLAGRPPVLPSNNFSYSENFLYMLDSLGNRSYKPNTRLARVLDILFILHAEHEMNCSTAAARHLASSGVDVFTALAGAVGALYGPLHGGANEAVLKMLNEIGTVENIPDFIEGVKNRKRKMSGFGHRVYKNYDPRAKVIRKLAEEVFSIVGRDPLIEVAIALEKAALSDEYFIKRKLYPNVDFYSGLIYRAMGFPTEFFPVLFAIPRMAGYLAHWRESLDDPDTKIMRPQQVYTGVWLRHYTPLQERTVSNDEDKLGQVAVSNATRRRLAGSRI

In the case of “citrate synthase from M. sulfidovorans W150A (enzyme)”, the stoichiometry N in data set [1] was found to be 2. In [2], “citrate synthase (type III CS) from M. sulfidovorans (enzyme)” showed a stoichiometry N of 6. With “type II citrate synthase of C. woesi (enzyme)”, the stoichiometry N in data set [3] was determined as 2. As for “type II citrate synthase of F. taffensis (enzyme)”, the stoichiometry N in data set [4] amounted to 2. In the case of CS from a Myxococcota species (enzyme), the stoichiometry N in data set [5] was 2. For `CC(=O)SCCNC(=O)CCNC(=O)[C@H](O)C(C)(C)COP(=O)(O)OP(=O)(O)OC[C@H]1O[C@@H](n2cnc3c(N)ncnc32)[C@H](O)[C@@H]1OP(=O)(O)O` [acetyl-CoA], the “mass photometry, oligomeric state shift” value in [6] was “shift the oligomeric state of the CS from A. comosus from octamers”. “non-mitochondrial citrate synthase (nmCS) of Chlamydomonas reinhardtii (enzyme)” returned a stoichiometry N in [7] of 2. For the molecule “non-mitochondrial citrate synthase (nmCS) of C. fasciculata (enzyme)”, the stoichiometry N in data set [8] was determined as 6.

In the case of “non-mitochondrial citrate synthase (nmCS) of Ananas comosus (enzyme)”, the stoichiometry N is 8 in [9]; 6 and 8 in [10].

B1: A. comosus CS Δ487-513, variant in which the extended C-terminus was deleted (domain or fragment)
chain: MEGAFDHSALARARLAVLSGHLAAVSAAGGGASPLERSPVSVQEIPPPPRNLGGSLAVIDGRSGKKFEFKISDEGTVRATDFKKITTGKNDKGLKLYDPGYLNTAPVRSSICYIDGDEGILRYRGYPIEELAESSSYPEVAYLLMYGNLPSKSQLADWEFAISQHSAVPQGVLDIIQGMPHDAHPMGVLVCAMSALSVFHPDANPALRGQDLYKSKQLRDKQIVRILGKVPTIAAAAYLRLAGRPPVLPSNNFSYSENFLYMLDSLGNRSYKPNTRLARVLDILFILHAEHEMNCSTAAARHLASSGVDVFTALAGAVGALYGPLHGGANEAVLKMLNEIGTVENIPDFIEGVKNRKRKMSGFGHRVYKNYDPRAKVIRKLAEEVFSIVGRDPLIEVAIALEKAALSDEYFIKRKLYPNVDFYSGLIYRAMGFPTEFFPVLFAIPRMAGYLAHWRESLDDPDTKIMRPQQVYTGVWLRHYTPLQERLEHHHHHH
On to B1, for which the “stoichiometry N” value in [11] amounted to 2.

B2: CS from D. pimensis (Dp) (Deinococcus pimensis) (protein)
chain: MTTTIAKGLEGVLFTETKLTFINGTEGVLTHLGIPIQEWAEKSTFEELSFALLHGKLPTREELAAFDADLKANRAVPAELITAIRAYPRDVHPMQALRTAASHLGLLDADAEDTSAEGRYRIGVRMIAQFSTIIAAIARAQDGQDPVEPRADLTHAGNFLYMLNGQEPSAEQARLFDIALILHADHGMNASTFTAIATASTLSDMYSSVVSAIGALKGPLHGGANEAVMDMLDEIGTVDAAVPFITQKLDNKEKIMGVGHRVYKYFDPRSRVLRDYAAHVSEKQGKSHYYSILETIEKEIVERLGGKGIYPNVDFYSGVVYSDLGIKKSFFTPIFALARISGWVASVTEYTANNRLLRPDAVYVGARDQHYVEIDERK
notes: full-length with C-terminal LE-HHHHHH tag, expressed in E. coli BL21(DE3); type I CS, polydisperse oligomer (dimers to >=8 subunits)
On to B2, for which, in data set [12], the Km stood at 25.4 ± 3.1 µM and the kcat amounted to 36.6 ± 1.1 s⁻¹.

B3: CS from M. sulfidovorans (type III) (Methylophaga sulfidovorans) (protein)
chain: MSDFLPGLEGVPATKSAISFIDGEKGILSYRGYPLETLAENSTFEETTLLLLDGELPTKKALNDFSQQLKDNYRIKYHIRQMMRHFPHTGHPMDMLQTAVSSLGMFYPGTECLTDANSCEDLDYVRNMTVNIIAQMAPLVAMWEHIRNGWDPVNPKHDLSVAENLLYMFNGEEPDPLMAKIMDVCLILHAEHTLNASTFAALVAGSTLATPYSVISAAIGTLSGPLHGGANQRVVGMLQEIGSPKNVESWVDEKLKNKEVIWGMGHREYKVKDPRATILHKLVEQLVAERGGHLDDMFDTALKLEEVCADRLGHKGVYPNVDFYSGILYSEMGIPEDEFTALFAVARSAGWLAHWREQISDNRIYRPTQIYVGSDMRDYTPIEER
notes: full-length with C-terminal LE-HHHHHH tag, expressed in E. coli BL21(DE3); type III CS, hexamer (three dimers)
With B3, in [13], the Km is reported as 50.5 ± 5.2 µM and the kcat stood at 33.3 ± 1.8 s⁻¹.

B4: CS from M. sulfidovorans (type III) (Methylophaga sulfidovorans; W150A) (protein)
chain: B3 chain with W150A
notes: as for B3
Turning to B4, in data set [13] (dimeric variant), the Km stood at 36.7 ± 5.7 µM and the turnover number (kcat) came out at 26.7 ± 1.1 s⁻¹.

B5: non-mitochondrial citrate synthase (nmCS) of P. olsenii (enzyme)
chain: MDRLNTVAAHVAPTLTITDNRSGKKIDVKVKDGTIRATDLKQLGIQTYDPGYMNTTCCVSRISFIDGNRGVLRYRGYPIEQLAQDSSFTEVAFLLQYGELPTRGQLTQWEQDLMRHSMLHQDVATLTSAFRYDAHPMGMFVSAMAALGTLHPETNPALTSQNIYKDKAVRNKEIARILGSATTLAAMAYRHRMGRPFNTPNSDLGYTENFLYMLDVSHEGTSYRPHPKLVKALDVLFVLHAEHELNCSTSAMRHLTSSNVDVYTACAAAAGALYGPRHGGANEAVLRMLERIGSIENVPTFVDKVKQRKELLMGFGHRVYKHYDPRATIVRKIAEDVFEICGREPLIEVAMDLERIALSDPYFKDRKLYPNVDFYSGLIYKAMGFPTDMFPILFTVPRLAGWLAHWSEWIDDPENRIYRPFQVYKGYDKRDYVQVDERSEKVHSKELTVKRSAFNRRRDASLQSAAADRSEYEWIKD
Regarding B5, the “stoichiometry N” value in data set [11] is 6.
